{"source": "ChEMBL document CHEMBL1126199", "about": "“(R)-(-)- and (S)-(+)-adenallene: synthesis, absolute configuration, enantioselectivity of antiretroviral effect, and enzymic deamination” (J Med Chem, 1992)", "proteins": {"B1": {"name": "Adenosine deaminase (Bos taurus), P56658 (protein)", "chain": "MAQTPAFNKPKVELHVHLDGAIKPETILYYGRKRGIALPADTPEELQNIIGMDKPLSLPEFLAKFDYYMPAIAGCREAVKRIAYEFVEMKAKDGVVYVEVRYSPHLLANSKVEPIPWNQAEGDLTPDEVVSLVNQGLQEGERDFGVKVRSILCCMRHQPSWSSEVVELCKKYREQTVVAIDLAGDETIEGSSLFPGHVKAYAEAVKSGVHRTVHAGEVGSANVVKEAVDTLKTERLGHGYHTLEDATLYNRLRQENMHFEVCPWSSYLTGAWKPDTEHPVVRFKNDQVNYSLNTDDPLIFKSTLDTDYQMTKNEMGFTEEEFKRLNINAAKSSFLPEDEKKELLDLLYKAYGMPSPASAEQCL"}}, "substrate": "Nc1ncnc2c1ncn2C=C=CCO", "assay": "Vmax by adenosine deaminase", "note": "Where “and” joins values, the source holds several entries; their conditions need not be identical. Equal values may be shown once.", "data": [{"protein": "B1", "values": [{"measurement": "Vmax", "result": "0.41 µM/min and 0.52 µM/min"}]}]}
